These results are taken from patent US20230416361A1.

The target of experiment [1] is human CD200R expressed on cells (human) (UniProt Q8TD46). Briefly: cell-based or functional assay.
The target is the same in experiment [2]. The experiment is described as follows: flow cytometry on Jurkat T cells expressing human CD200R, 24 h at 37 C, PE anti-hIgG secondary.
Experiment [3] addresses extracellular domain of human CD200R (Met29-Leu243) (human) (UniProt Q8TD46). The experiment is described as follows: SPR (Biacore), antibody captured by anti-human Fc, CD200R extracellular domain injected, single cycle kinetics, 25 C.
The target in experiment [4] is human CD200R expressed on cells (human) (UniProt Q8TD46).
Experiment [5] has the same target. The experiment is described as follows: flow cytometry on Jurkat T cells lentivirally expressing human CD200R, 24 h at 37 C, PE anti-hIgG secondary antibody, geometric MFI, non-linear curve fit.

B1: anti-CD200R antibody clone 21.3.1 (mIgG1k isotype) (antibody, V domains shown)
VH: QVQLQQPGSELVRPGASVKLSCKASGHTFTSYWMHWVKQRPGQGLEWIGNIYPGSGSINYDEKFKSKAKLTVDTSSRTAYMQLSSLTSEDSAVYYCLTMTGTSWGQGTLVTVSA
VL: DVQMIQSPSSLSASLGDIVTMTCQASQGTPINLHWFQQKPGKAPKLLISGASNLEDGVPSRFSGSRYGTAFTLTISSLEDEDMATYFCLQFTYIPWTFGGGTKLEIKR
In experiment [1], B1 had an Average % inhibition of SEAP activity at Log [Antibody], M = -8.18 of 35.3%; an Average % inhibition of SEAP activity at Log [Antibody], M = -8.8 of 28.3%; an Average % inhibition of SEAP activity at Log [Antibody], M = -9.57 of 23.4%; an Average % inhibition of SEAP activity at Log [Antibody], M = -10.27 of 9.8%. In experiment [1], this molecule registered an Average % inhibition of SEAP activity at Log [Antibody], M = -10.9 of 1.1%; an Average % inhibition of SEAP activity at Log [Antibody], M = -11.6 of 1%; an Average % inhibition of SEAP activity at Log [Antibody], M = -12.3 of 1.7%; an IC50 of inhibition of NF-kB-inducible SEAP reporter activity in CD200R-expressing THP-1 dual cells of 141 pM. Besides, the average maximal percentage inhibition (Emax) of SEAP activity in experiment [1] turned out to be 33.2%.

B2: hu2131_Q1E_M99G hIgG1k P238D (antibody, V domains shown)
VH: EVQLVQSGAEVKKPGASVKVSCKASGHTFTSYWMHWVRQAPGQGLEWMGNIYPGSGSINYDEKFQGRVTMTADTSTSTVYMELSSLRSEDTAVYYCLTGTGTSWGRGTLVTVSS
VL: DIQMTQSPSSLSVSVGDRVTITCQASQGTPINLHWFQQKPGKAPKLLISGASNLESGVPSRFSGSGSGTEFTFTISSLQPEDAATYYCLQFTYIPWTFGQGTKLEIKR
With B2, the concentration giving a half-maximal response (EC50) in experiment [2] stood at 530 pM. In addition, in experiment [3], the Kd is < 19.3 pM, the koff is < 1e-05 s⁻¹ and the kon stood at 517000 M⁻¹ s⁻¹. Besides, the EC50 of DOK2 recruitment to CD200R, enzyme fragment complementation luminescence, PathHunter Jurkat CD200R cells co-cultured with FcgRIIb-expressing HEK293 cells in experiment [4] turned out to be 437 pM. In addition, the EC50 of Dok2 recruitment to human CD200R (enzyme fragment complementation, PathHunter Jurkat CD200R cells co-cultured with FcγRIIb HEK293 cells) in experiment [1] worked out at 440 pM.

B3: Antibody I-4P (antibody, human IgG4 S228P, kappa, V domains shown)
VH: QVQLVQSGAEVKKPGASVKVSCKASGFSFSSGYYMAWVRQAPGQGLEWMGLIGVGSGSLWYAQKFQGRVTMTRDTSTSTVYMELSSLRSEDTAVYYCARHFALSDPFNLWGQGTLVTVSS
VL: EIVLTQSPDFQSVTPKEKVTITCQASESIDSYLLWYQQKPDQSPKLLIKQASTLASGVPSRFSGSGSGTDFTLTINSLEAEDAATYYCQNYYDISSNDFGGGTKVEIKR
In the case of B3, the half-maximal effective concentration (EC50) in experiment [2] came to 3400 pM. In addition, in experiment [4], the EC50 of DOK2 recruitment to CD200R, enzyme fragment complementation luminescence, PathHunter Jurkat CD200R cells co-cultured with FcgRIIb-expressing HEK293 cells turned out to be 1140 pM. In addition, the EC50 in experiment [5] was determined as 3430 pM. In experiment [1], this molecule registered an Average % inhibition of SEAP activity at Log [Antibody], M = -8.18 of 22.3%; an Average % inhibition of SEAP activity at Log [Antibody], M = -8.8 of 20.9%; an Average % inhibition of SEAP activity at Log [Antibody], M = -9.57 of 16.1%; an Average % inhibition of SEAP activity at Log [Antibody], M = -10.27 of 7.7%. In experiment [1], the Average % inhibition of SEAP activity at Log [Antibody], M = -10.9 was 3.2%; the Average % inhibition of SEAP activity at Log [Antibody], M = -11.6 worked out at 2.2%; the Average % inhibition of SEAP activity at Log [Antibody], M = -12.3 turned out to be 3.1%; the EC50 of Dok2 recruitment to human CD200R (enzyme fragment complementation, PathHunter Jurkat CD200R cells co-cultured with FcγRIIb HEK293 cells) worked out at 1100 pM. In experiment [1], this molecule had an IC50 of inhibition of NF-kB-inducible SEAP reporter activity in CD200R-expressing THP-1 dual cells of 134 pM and an average maximal percentage inhibition (Emax) of SEAP activity of 19.9%.
